Data published in paper doi:10.1101/152272, “t-Darpp is an elongated monomer that binds to calcium and is phosphorylated by cyclin-dependent kinases 1 and 5” (bioRxiv, 2017).

Target: the molecule itself
Assay: cross-linking; glutaraldehyde 0.1% or 1% (v/v), 30 min at 25°C, then SDS-PAGE (10% gel); each protein alone and an equimolar mixture of t-Darpp and Darpp-32

B1: Darpp-32 (natural protein, UniProt Q9UD71-1 1-204, looked up)
chain: MDPKDRKKIQFSVPAPPSQLDPRQVEMIRRRRPTPAMLFRLSEHSSPEEEASPHQRASGEGHHLKSKRPNPCAYTPPSLKAVQRIAESHLQSISNLNENQASEEEDELGELRELGYPREEDEEEEEDDEEEEEEEDSQAEVLKVIRQSAGQKTTCGQGLEGPWERPPPLDESERDGGSEDQVEDPALSEPGEEPQRPSPSEPGT
notes: Darpp-32, the longer isoform encoded by PPP1R1B, with 36 more residues at the N-terminus than t-Darpp; The printed UniProt entry is the human protein; The construct is probably the whole isoform, because the tail is said to be added to the C-terminus of Darpp-32; also called recombinant Darpp-32; longer isoform of t-Darpp; source: E. coli BL21 DE3, purified (Ni-NTA)
stoichiometry N: 2
